How the values were obtained:
[1] = system: HeLa Kyoto; experiment: solubility in G1/S (NP-40 vs SDS abundance) (log2 ratio); higher = more soluble; conditions: cell cycle stage: G1/S
[2] = system: HeLa Kyoto; experiment: melting temperature (median over replicates), in situ; higher = more thermally stable
[3] = system: HeLa Kyoto; experiment: solubility change mitosis vs G1/S (difference of NP-40 vs SDS log2 ratios) (log2 ratio difference); higher = more soluble in mitosis
[4] = system: HeLa Kyoto; experiment: thermal stability score vs G1/S (z-score of summed log2 fold changes over temperatures); higher = more thermally stable than in G1/S
[5] = cell cycle stage: early G1 (4.5 h after nocodazole release)
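For melting temperature (median over replicates), in situ in this document: HeLa Kyoto cells synchronized by double thymidine or nocodazole block, proteins quantified by TMT10plex mass spectrometry, three independent biological replicates.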
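For solubility change mitosis vs G1/S (difference of NP-40 vs SDS log2 ratios) in this document: synchronized HeLa Kyoto cells (double thymidine block for G1/S, nocodazole release for mitosis), protein amounts in NP-40 versus SDS lysates quantified by mass spectrometry, three biological replicates.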
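For solubility in G1/S (NP-40 vs SDS abundance) in this document: HeLa Kyoto cells arrested at G1/S by double thymidine block, proteins quantified by TMT10plex mass spectrometry in mild NP-40 versus SDS extracts, three biological replicates.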
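For thermal stability score vs G1/S (z-score of summed log2 fold changes over temperatures) in this document: synchronized HeLa Kyoto cells, proteins quantified by TMT10plex mass spectrometry, three biological replicates, mitosis taken 0.5 h after nocodazole release, G1/S directly after double thymidine block.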

IRF2BP2, sequence (chain, as listed by the source): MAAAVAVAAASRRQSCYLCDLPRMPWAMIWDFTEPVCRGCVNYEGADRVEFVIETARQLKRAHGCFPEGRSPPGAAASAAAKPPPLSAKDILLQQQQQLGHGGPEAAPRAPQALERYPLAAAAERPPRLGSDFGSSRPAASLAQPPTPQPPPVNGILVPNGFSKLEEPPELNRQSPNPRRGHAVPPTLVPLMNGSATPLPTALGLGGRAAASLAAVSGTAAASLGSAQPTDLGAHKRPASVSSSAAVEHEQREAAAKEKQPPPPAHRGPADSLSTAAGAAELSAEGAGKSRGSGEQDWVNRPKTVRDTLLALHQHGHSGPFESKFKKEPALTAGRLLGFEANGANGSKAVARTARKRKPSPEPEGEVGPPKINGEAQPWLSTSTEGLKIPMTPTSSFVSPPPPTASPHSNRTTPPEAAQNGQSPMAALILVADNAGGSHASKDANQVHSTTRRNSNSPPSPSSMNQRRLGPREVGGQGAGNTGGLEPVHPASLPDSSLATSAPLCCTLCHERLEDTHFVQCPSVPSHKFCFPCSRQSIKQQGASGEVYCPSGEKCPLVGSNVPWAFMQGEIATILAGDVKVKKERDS
HDGF, sequence (chain, as listed by the source): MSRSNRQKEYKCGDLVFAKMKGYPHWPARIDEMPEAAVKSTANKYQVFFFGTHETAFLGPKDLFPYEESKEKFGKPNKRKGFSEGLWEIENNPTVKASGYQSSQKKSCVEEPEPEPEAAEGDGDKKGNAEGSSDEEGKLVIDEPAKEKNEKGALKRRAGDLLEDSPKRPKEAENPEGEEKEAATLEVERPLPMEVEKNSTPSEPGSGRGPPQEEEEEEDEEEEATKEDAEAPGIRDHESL

Row | Substance | solubility in G1/S (log2) [1] | melting temperature ([2]; cell cycle stage: G1/S) | melting temperature ([2]; cell cycle stage: mitosis) | solubility change mitosis (log2) [3] | thermal stability score [4, 5] | thermal stability score ([4]; cell cycle stage: mitosis)
1 | GCHFR | 0.27 | 55 °C | 59.7 °C | 0.498 | -1.12 | -0.945
2 | GOLGA4 | 0.348 | 48.5 °C | 49.2 °C | -0.133 | 0.946 | 2.53
3 | HDGF | 0.426 | 53.5 °C | 53.2 °C | 0.219 | -2.27 | -3.47
4 | HERC2 | -0.443 | 51.3 °C | 50 °C | 0.00915 | 0.138 | 0.405
5 | ILF2 | -0.141 | 54.6 °C | 53.3 °C | 0.0511 | -1.61 | -1.98
6 | IQGAP3 | -0.395 | 47.8 °C | 48.1 °C | 0.191 | 0.51 | 1.12
7 | IRF2BP2 | 0.391 | 53 °C | 52.6 °C | -0.0308 | -0.348 | -1.16
8 | ITSN1 | 0.0319 | 49.5 °C | 50.2 °C | -0.0764 | -0.00548 | 0.39
9 | JMJD1C | -0.105 | 50.2 °C | 50.7 °C | -0.0573 | 0.98 | 0.156
10 | KIF13A | -0.0515 | 51.9 °C | 51.4 °C | -0.102 | -0.212 | -0.151
11 | KIF14 | -0.297 | 49.1 °C | 45.5 °C | -0.0203 | -0.945 | -2.77
12 | LACTB2 | 0.418 | 57.7 °C | 56.1 °C | -0.0335 | -2.61 | -0.348

Source: the supplement of paper PMC5998384
